For one molecule, Kd results are on record in article PMC2631437 (Molecular microbiology, 2008).

Changes are numbered by the printed parent chain.

Common to all, as to test: EMSA
For orientation: In EMSA bound probe runs differently from free probe, usually more slowly.

For one data set, the target named is T1, MotA D43K (bacteriophage T4, UniProt P22915 1-211, D43K).
T1 sequence: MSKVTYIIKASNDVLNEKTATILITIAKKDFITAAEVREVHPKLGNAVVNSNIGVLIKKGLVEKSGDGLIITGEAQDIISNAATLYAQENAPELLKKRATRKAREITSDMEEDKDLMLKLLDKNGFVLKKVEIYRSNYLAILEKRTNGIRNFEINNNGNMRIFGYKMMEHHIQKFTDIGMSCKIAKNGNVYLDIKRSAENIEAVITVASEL

The target in a further data set is T2, MotA K28E (bacteriophage T4, UniProt P22915 1-211, K28E).
T2 sequence: T1 sequence with K28E, K43D

The target of another data set is T3, MotA Q76R (bacteriophage T4, UniProt P22915 1-211, Q76R).
T3 sequence: T1 sequence with K43D, Q76R

The next data set addresses T4, MotA K3E (bacteriophage T4, UniProt P22915 1-211, K3E).
T4 sequence: T1 sequence with K3E, K43D

Another data set addresses T5, MotA K59E (bacteriophage T4, UniProt P22915 1-211, K59E).
T5 sequence: T1 sequence with K43D, K59E

The target of another data set is T6, MotA S80R (bacteriophage T4, UniProt P22915 1-211, S80R).
T6 sequence: T1 sequence with K43D, S80R

B1: 21 bp MotA box DNA (dsDNA)
DNA 1: GAATTATTTGCTTTAGATTAC
DNA 2: GTAATCTAAAGCAAATAATTC
Regarding B1, the Kd in the data set with MotA D43K was around 500 nM; in the data set with MotA K28E, around 500 nM; with MotA Q76R it was around 600 nM; with MotA K3E it was around 500 nM; with MotA K59E, around 500 nM; in the data set with MotA S80R it was around 600 nM.

Broadly, the Kd is the equilibrium constant for the complex coming apart.
